The results in this text go back to patent publication US5955431A, “Mast cell protease peptide inhibitors” (Brigham and Women's Hospital, Inc., priority 1998, dated 1999).

Where a SMILES comes first, the peptide text is derived from it. Where no end group is shown, it is not given here. The star is where a group is joined. pNA = O=[N+]([O-])c1ccc(N*)cc1; Tos = Cc1ccc(S(=O)(=O)*)cc1; Bz = O=C(c1ccccc1)*

Assay [1] addresses T1, recombinant mMCP-6-FLAG (Mus musculus, UniProt P21845).
T1 construct: endogenous pro-peptide followed by EK-susceptible peptide (Asp-Asp-Asp-Asp-Lys) (N, cleaved yes); made in house; host or cells: baculovirus; Spodoptera frugiperda 9 for virus, Trichoplusia ni High Five insect cells for expression
T1 sequence (P21845 32-276): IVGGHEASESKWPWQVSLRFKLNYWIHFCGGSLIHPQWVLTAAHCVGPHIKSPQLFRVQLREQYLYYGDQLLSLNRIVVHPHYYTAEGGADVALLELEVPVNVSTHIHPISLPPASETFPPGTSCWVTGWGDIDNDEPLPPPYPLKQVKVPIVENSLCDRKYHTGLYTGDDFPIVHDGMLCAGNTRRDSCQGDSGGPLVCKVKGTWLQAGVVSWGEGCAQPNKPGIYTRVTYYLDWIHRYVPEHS
As to the kind of experiment: spectrophotometric cleavage of trypsin-susceptible p-nitroanilide substrates by EK-activated mMCP-6-FLAG. It counts as biochemical. The settings on record: for cleavage of substrate by mMCP-6-FLAG: in the presence or absence of heparin; for cleavage of substrate by EK-activated tryptase (mMCP-6-FLAG): in the absence of heparin. As to the method:
Purified pro-EK-mMCP-6-FLAG (~100 μg in 100 μl) was separately mixed with 100 μl of a pH 5.2 buffer consisting of 50 mM sodium acetate and 5 mM calcium chloride. One μl of a solution containing 550 U of calf intestine EK (Biozyme) was added to each, and the mixture was incubated at 37° C. generally for 3 h to allow EK to activate the zymogen in the absence of heparin. The spectrophotometric method of Svendsen and coworkers (Throm. Res. 1972, 1:267-278) was used to determine whether or not mMCP-6-FLAG is enzymatically active. Generally, 1-μl samples of each activation reaction were placed in 1 ml of a pH 7.4 buffer containing 25 mM sodium phosphate, 1 mM EDTA, and 50 μg of tosyl-Gly-Pro-Lys-p-nitroanilide. The change in optical density at 405 nm was then determined after a 3-min incubation at room temperature. The ability of recombinant mMCP-6-FLAG to cleave the trypsin-susceptible substrates tosyl-Gly-Pro-Arg-p-nitroanilide, benzoyl-Ile-Glu-Gly-Arg-p-nitroanilide, benzoyl-Pro-Phe-Arg-p-nitroanilide, and acetyl-Ile-Glu-Ala-Arg-p-nitroanilide were also evaluated.

Assay [2] concerns the target T1, recombinant mMCP-6-FLAG. In words: screening of tryptase-specific phage peptide display library with mMCP-6-FLAG in the absence of heparin. Particulars: library incubated 4 times with mMCP-6-FLAG, 30 clones. It counts as biochemical. From the text:
(§1) Screening of a Tryptase-Specific, Bacteriophage Peptide Display Library with mMCP-6--A peptide display library that encodes an altered pIII containing at its N terminus the FLAG peptide followed by an 8-residue hypervariable peptide was screened with recombinant mMCP-6-FLAG. Briefly, phage were obtained that express on their surface a pill fusion protein with an extension peptide consisting of the FLAG peptide and a hypervariable octamer peptide containing a Lys/Arg residue at the PI site. After the varied phages in the library were allowed to bind to the anti-FLAG IgG column, the immuno-affinity column was incubated with recombinant mMCP-6-FLAG in the presence or absence of heparin. Those phage recovered in the column's eluate were amplified, and the selection procedure was repeated one lo three times. By determining the nucleotide sequence of the relevant portion of the geneIII construct in each clone, the amino acid sequence of the mMCP-6-susceptible peptide in the random domain of the pIII fusion protein was deduced. To prepare the phage column used in the screening process, 10 ml of the phage-enriched supernatant was added to 2 ml of 20% polyethylene glycol (8 kDa; Sigma) and 2.5 M NaCl and the mixture incubated at 4° C. for 30 min. After a 30 min centrifugation at 10,000 g, the recombinant phage in the pellet were resuspended in 2 ml of 150 mM NaCl, 1 mM […], and 10 mM sodium phosphate, pH 7.0, and applied to a 1-ml affinity column containing the anti-FLAG M1 monoclonal antibody. The column was washed 3 times with 10 ml of the same pH 7.0 buffer to remove unbound phage. EK-activated mMCP-6-FLAG (~50 μg in 200 μl buffer) in the absence or presence of heparin glycosaminoglycan (~50 μg) was added, and the column was sealed and incubated at room temperature for 90 min. […] Log-phase E. coli were infected with the obtained phage to produce phagemid. Bacteria were again grown in 2×YT medium containing 2% glucose and the phagemid in the bacteria were converted to phage with the addition of helper phage. This screening procedure was repeated up to 4 times to select the phage in the library which are most susceptible to degradation by mMCP-6-FLAG.
(§2) E. coli was infected with resulting mMCP-6-FLAG-susceptible phage to generate phagemids. The infected bacteria were seeded onto a plate containing 1.5% agar, 2% Bacto-tryptone, 0.5% Bacto-yeast extract, 2% glucose, 0.09 M NaCl, 0.01 M MgCl2, and 100 μg/ml ampicillin. Individual clones were isolated and grown overnight at 37° C. in 2 ml of 2×YT medium containing 2% glucose with 50 μg/ml ampicillin. One ml of the overnight cultures were centrifuged at ~12,000 g for 5 min. The bacteria in the pellets were lysed and the DNAs were extracted with mini-prep method. The DNAs were digested with NotI and EcoRI restriction enzymes at 37° C. overnight. The digested DNA mini-preps were subjected to electrophoresis on a 1% agarose gel, and those individual phage clones with ~1300-bp inserts were selected for maxi-preparation of their DNAs using nucleobond DNA-binding columns (The Nest Group). The nucleotide sequences which encode the 8-mer, protease-susceptible peptide domains in the fusion proteins were determined.

The target of another assay is T2, mMCP-6/heparin complex (Mus musculus, UniProt P21845).
T2 construct: endogenous pro-peptide followed by EK-susceptible peptide (Asp-Asp-Asp-Asp-Lys) (N, cleaved yes); made in house; host or cells: baculovirus; Spodoptera frugiperda 9 for virus, Trichoplusia ni High Five insect cells for expression
T2 sequence (P21845 32-276): T1 sequence (P21845 32-276)
In words: screening of tryptase-specific phage peptide display library with mMCP-6-FLAG in the presence of heparin. It counts as biochemical. Particulars: for Clones (number of clones with this mMCP-6-susceptible peptide): equal weight amount of heparin.
Source text: as §1, §2

The test system of assay [3] is Swiss albino mouse skin-derived 3T3 fibroblasts. As to the kind of experiment: adhesion and growth of fibroblasts on fibronectin-coated culture dishes. The format is cell-based. As to the method:
However, these cells will become less adhesive and divide in vitro when they are trypsin treated. To determine if mMCP-6-FLAG could specifically alter the growth and/or adhesion of these cells, the fibroblasts were allowed to attach to replicate fibronectin-coated culture dishes and then were incubated for 15 min at 37° C. with buffer alone or buffer containing either pro-EK-mMCP-6-FLAG, mMCP-6-FLAG, mMCP-7-FLAG, or trypsin. […] SDS-PAGE/immunoblot analysis of the supernatants from the result cultures confirmed that fibronectin was degraded in the mMCP-6-FLAG-treated cultures but not in the pro-EK-mMCP-6-FLAG or mMCP-7-FLAG treated cultures.

For `CC[C@H](C)[C@H](NC(=O)c1ccccc1)C(=O)N[C@@H](CCC(=O)O)C(=O)NCC(=O)N[C@@H](CCCNC(=N)N)C(=O)Nc1ccc([N+](=O)[O-])cc1` [benzoyl-Ile-Glu-Gly-Arg-p-nitroanilide] (Bz-IEGR-pNA), at recombinant mMCP-6-FLAG [1], the “cleavage of substrate by mMCP-6-FLAG” value is reported as “does not effectively cleave”.
`N=C(N)NCCC[C@H](NC(=O)[C@H](Cc1ccccc1)NC(=O)[C@@H]1CCCN1C(=O)c1ccccc1)C(=O)Nc1ccc([N+](=O)[O-])cc1` [benzoyl-Pro-Phe-Arg-p-nitroanilide] (Bz-Pro-Phe-Arg-pNA): on recombinant mMCP-6-FLAG [1], the “cleavage of substrate by mMCP-6-FLAG” value is “does not effectively cleave”.
Take `Cc1ccc(S(=O)(=O)NCC(=O)N2CCC[C@H]2C(=O)N[C@@H](CCCNC(=N)N)C(=O)Nc2ccc([N+](=O)[O-])cc2)cc1` [tosyl-Gly-Pro-Arg-p-nitroanilide] (Tos-Gly-Pro-Arg-pNA): the “cleavage of substrate by EK-activated tryptase (mMCP-6-FLAG)” value at recombinant mMCP-6-FLAG [1] was “readily cleaves”.
Still for that read-out and setting: the value for `Cc1ccc(S(=O)(=O)NCC(=O)N2CCC[C@H]2C(=O)N[C@@H](CCCCN)C(=O)Nc2ccc([N+](=O)[O-])cc2)cc1` [tosyl-Gly-Pro-Lys-p-nitroanilide] (Tos-Gly-Pro-Lys-pNA) was “readily cleaves”.
ECRQRHTR: the “Clones (number of clones with this mMCP-6-susceptible peptide)” value (shortened to “Clones”) in the assay with recombinant mMCP-6-FLAG [2] is 1.
For EEKKKHKK, the “Clones” value with recombinant mMCP-6-FLAG [2] turned out to be 1.
Take FISRRVCR: the “Clones” value with recombinant mMCP-6-FLAG [2] came out at 1.
The same measure, in the same setting: the value for GPRLRHPR was 1.
Still for that read-out and setting: then IRFARSQA, with 1; and KKIERRNT, with 1.
With LCAKRLYR, the “Clones” value with recombinant mMCP-6-FLAG [2] is reported as 1.
On the same count and under the same terms, the value for LIALRSTT was 1; that for LSTSRASI was 1.
Turning to NLRKRKIK, the “Clones” value with recombinant mMCP-6-FLAG [2] was 1.
On the same count and under the same terms, then NSTVRKRK, with 1.
For PDNQRYIT, in the assay with recombinant mMCP-6-FLAG [2], the “Clones” value was found to be 1.
On to PFTHKSLS, for which, in the assay with mMCP-6/heparin complex (two rounds of treatment), the “Clones” value is reported as 1.
With PKETKQTN, the “Clones” value with mMCP-6/heparin complex (four rounds of treatment) and with mMCP-6/heparin complex (two rounds of treatment) was 1 each time.
For PLILRSRA, the “Clones” value in the assay with recombinant mMCP-6-FLAG [2] amounted to 1.
With PLPCKLDA, the “Clones” value with recombinant mMCP-6-FLAG [2] came to 1.
Regarding PPPFRRSS, the “Clones” value in the assay with recombinant mMCP-6-FLAG [2] came out at 1.
On the same count and under the same terms, the value for PTPLKHPR was 1; that for PYPPKRTP was 1; that for QKRGREPR was 1.
For QRTKRKHN, the “Clones” value in the assay with recombinant mMCP-6-FLAG [2] came to 1.
Same read-out and setting: then RKPTKKNS, with 1.
With RNRQKT [SEQ. ID NO. 1], the “susceptibility of the sequence to cleavage” value with mMCP-6/heparin complex (mMCP-6/heparin complex) is given as “susceptible to cleavage by the mMCP-6/heparin complex”.
As to RNRQKTNN, the figures for the “Clones” value in the assay with mMCP-6/heparin complex (four rounds of treatment) and with mMCP-6/heparin complex (two rounds of treatment) were 4 and 11, respectively.
Take RQNRRPSN: the “Clones” value in the assay with recombinant mMCP-6-FLAG [2] came out at 1.
In the case of SLALRVWR, the “Clones” value with recombinant mMCP-6-FLAG [2] was 1.
Regarding SLSSRQSP, the “Clones” value with mMCP-6/heparin complex (four rounds of treatment) was found to be 2; with mMCP-6/heparin complex (two rounds of treatment), 3; with recombinant mMCP-6-FLAG [2] it was 1.
Turning to SPRPRSTP, in the assay with recombinant mMCP-6-FLAG [2], the “Clones” value was found to be 1.
On to SVLPKLRI, for which the “Clones” value with mMCP-6/heparin complex (four rounds of treatment) and with mMCP-6/heparin complex (two rounds of treatment) was 1 each time.
For the molecule TGVHKPST, the “Clones” value in the assay with recombinant mMCP-6-FLAG [2] turned out to be 1.
As for TPLLKSWL, the “Clones” value with mMCP-6/heparin complex (four rounds of treatment) was determined as 7; with mMCP-6/heparin complex (two rounds of treatment), 5.
Turning to VRPARALH, in the assay with recombinant mMCP-6-FLAG [2], the “Clones” value was found to be 1.
On the same count and under the same terms, then VRPVKSFR, with 2.

B1: trypsin: serine protease used as comparison in fibroblast adhesion test (protein, UniProt P00760 24-246, looked up)
Serine protease 1: IVGGYTCGANTVPYQVSLNSGYHFCGGSLINSQWVVSAAHCYKSGIQVRLGEDNINVVEGNEQFISASKSIVHPSYNSNTLNNDIMLIKLKSAASLNSRVASISLPTSCASAGTQCLISGWGNTKSSGTSYPDVLKCLKAPILSDSSCKSAYPGQITSNMFCAGYLEGGKDSCQGDSGGPVVCSGKLQGIVSWGSGCAQKNKPGVYTKVCNYVSWIKQTIASN
With B1, the “adhesion/shape of fibroblasts on fibronectin-coated dishes” value in assay [3] (15 min at 37° C.) was “rapidly induced the cultured fibroblasts to round up”. In addition, the “fibroblasts remaining attached to the culture dish” value in assay [3] (40 min incubation) is “very few fibroblasts remained attached”.
